The source of these data is the supplement of paper PMC5998384.

The test system of series [1] is HeLa Kyoto. The experiment in a line: solubility in G1/S (NP-40 vs SDS abundance) (log2 ratio); higher = more soluble. Conditions: cell cycle stage: G1/S.
Series [2] concerns HeLa Kyoto. The experiment in a line: melting temperature (median over replicates), in situ; higher = more thermally stable.
In series [3] the test system is HeLa Kyoto. Briefly: solubility change mitosis vs G1/S (difference of NP-40 vs SDS log2 ratios) (log2 ratio difference); higher = more soluble in mitosis.
For series [4], the system named is HeLa Kyoto. The experiment in a line: thermal stability score vs G1/S (z-score of summed log2 fold changes over temperatures); higher = more thermally stable than in G1/S.
Setting [5] is: cell cycle stage: early G1 (4.5 h after nocodazole release).
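Throughout, for melting temperature (median over replicates), in situ: HeLa Kyoto cells synchronized by double thymidine or nocodazole block, proteins quantified by TMT10plex mass spectrometry, three independent biological replicates.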
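Throughout, for solubility change mitosis vs G1/S (difference of NP-40 vs SDS log2 ratios): synchronized HeLa Kyoto cells (double thymidine block for G1/S, nocodazole release for mitosis), protein amounts in NP-40 versus SDS lysates quantified by mass spectrometry, three biological replicates.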
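Throughout, for solubility in G1/S (NP-40 vs SDS abundance): HeLa Kyoto cells arrested at G1/S by double thymidine block, proteins quantified by TMT10plex mass spectrometry in mild NP-40 versus SDS extracts, three biological replicates.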
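Throughout, for thermal stability score vs G1/S (z-score of summed log2 fold changes over temperatures): synchronized HeLa Kyoto cells, proteins quantified by TMT10plex mass spectrometry, three biological replicates, mitosis taken 0.5 h after nocodazole release, G1/S directly after double thymidine block.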

Turning to “MPHFTVVPVDGPRRGDYDNLEGLSWVDYGERAELDDSDGHGNHRESSPFLSPLEASRGIDYYDRNLALFEEELDIRPKVSSLLGKLVSYTNLTQGAKEHEEAESGEGTRRRAAEAPSMGTLMGVYLPCLQNIFGVILFLRLTWMVGTAGVLQALLIVLICCCCTLLTAISMSAIATNGVVPAGGSYFMISRSLGPEFGGAVGLCFYLGTTFAAAMYILGAIEILLTYIAPPAAIFYPSGAHDTSNATLNNMRVYGTIFLTFMTLVVFVGVKYVNKFASLFLACVIISILSIYAGGIKSIFDPPVFPVCMLGNRTLSRDQFDICAKTAVVDNETVATQLWSFFCHSPNLTTDSCDPYFMLNNVTEIPGIPGAAAGVLQENLWSAYLEKGDIVEKHGLPSADAPSLKESLPLYVVADIATSFTVLVGIFFPSVTGIMAGSNRSGDLRDAQKSIPVGTILAIITTSLVYFSSVVLFGACIEGVVLRDKYGDGVSRNLVVGTLAWPSPWVIVIGSFFSTCGAGLQSLTGAPRLLQAIAKDNIIPFLRVFGHGKVNGEPTWALLLTALIAELGILIASLDMVAPILSMFFLMCYLFVNLACAVQTLLRTPNWRPRFKYYHWALSFLGMSLCLALMFVSSWYYALVAMLIAGMIYKYIEYQGAEKEWGDGIRGLSLSAARYALLRLEEGPPHTKNWRPQLLVLLKLDEDLHVKYPRLLTFASQLKAGKGLTIVGSVIQGSFLESYGEAQAAEQTIKNMMEIEKVKGFCQVVVASKVREGLAHLIQSCGLGGMRHNSVVLGWPYGWRQSEDPRAWKTFIDTVRCTTAAHLALLVPKNIAFYPSNHERYLEGHIDVWWIVHDGGMLMLLPFLLRQHKVWRKCRMRIFTVAQMDDNSIQMKKDLAVFLYHLRLEAEVEVVEMHNSDISAYTYERTLMMEQRSQMLRQMRLTKTEREREAQLVKDRHSALRLESLYSDEEDESAVGADKIQMTWTRDKYMTETWDPSHAPDNFRELVHIKPDQSNVRRMHTAVKLNEVIVTRSHDARLVLLNMPGPPRNSEGDENYMEFLEVLTEGLERVLLVRGGGREVITIYS [SLC12A4]”, the “solubility in G1/S (log2)” value in series [1] came out at 0.0648. Further, the melting temperature in series [2] (cell cycle stage: G1/S) was determined as 54.3 °C; in series [2] (cell cycle stage: mitosis) it was 54.2 °C. For the same sequence, in series [3], the “solubility change mitosis (log2)” value is -0.148. Further, the thermal stability score in series [4] (setting [5]) was 0.505; in series [4] (cell cycle stage: mitosis), 0.0338.

As for “MPHIDNDVKLDFKDVLLRPKRSTLKSRSEVDLTRSFSFRNSKQTYSGVPIIAANMDTVGTFEMAKVLCKFSLFTAVHKHYSLVQWQEFAGQNPDCLEHLAASSGTGSSDFEQLEQILEAIPQVKYICLDVANGYSEHFVEFVKDVRKRFPQHTIMAGNVVTGEMVEELILSGADIIKVGIGPGSVCTTRKKTGVGYPQLSAVMECADAAHGLKGHIISDGGCSCPGDVAKAFGAGADFVMLGGMLAGHSESGGELIERDGKKYKLFYGMSSEMAMKKYAGGVAEYRASEGKTVEVPFKGDVEHTIRDILGGIRSTCTYVGAAKLKELSRRTTFIRVTQQVNPIFSEAC [GMPR2]”, the “solubility in G1/S (log2)” value in series [1] was determined as 0.0286. Besides, the melting temperature in series [2] (cell cycle stage: G1/S) is 56.3 °C; in series [2] (cell cycle stage: mitosis), 59.4 °C. Further, the “solubility change mitosis (log2)” value in series [3] was -0.137. Further, the thermal stability score is -0.68 in series [4] (setting [5]) and -2.3 in series [4] (cell cycle stage: mitosis).

For “MPHLPLASFRPPFWGLRHSRGLPRFHSVSTQSEPHGSPISRRNREAKQKRLREKQATLEAEIAGESKSPAESIKAWRPKELVLYEIPTKPGEKKDVSGPLPPAYSPRYVEAAWYPWWVREGFFKPEYQARLPQATGETFSMCIPPPNVTGSLHIGHALTVAIQDALVRWHRMRGDQVLWVPGSDHAGIATQAVVEKQLWKERGVRRHELSREAFLREVWQWKEAKGGEICEQLRALGASLDWDRECFTMDVGSSVAVTEAFVRLYKAGLLYRNHQLVNWSCALRSAISDIEVENRPLPGHTQLRLPGCPTPVSFGLLFSVAFPVDGEPDAEVVVGTTRPETLPGDVAVAVHPDDSRYTHLHGRQLRHPLMGQPLPLITDYAVQPHVGTGAVKVTPAHSPADAEMGARHGLSPLNVIAEDGTMTSLCGDWLQGLHRFVAREKIMSVLSEWGLFRGLQNHPMVLPICSRSGDVIEYLLKNQWFVRCQEMGARAAKAVESGALELSPSFHQKNWQHWFSHIGDWCVSRQLWWGHQIPAYLVVEDHAQGEEDCWVVGRSEAEAREVAAELTGRPGAELTLERDPDVLDTWFSSALFPFSALGWPQETPDLARFYPLSLLETGSDLLLFWVGRMVMLGTQLTGQLPFSKVLLHPMVRDRQGRKMSKSLGNVLDPRDIISGVEMQVLQEKLRSGNLDPAELAIVAAAQKKDFPHGIPECGTDALRFTLCSHGVQAGDLHLSVSEVQSCRHFCNKIWNALRFILNALGEKFVPQPAEELSPSSPMDAWILSRLALAAQECERGFLTRELSLVTHALHHFWLHNLCDVYLEAVKPVLWHSPRPLGPPQVLFSCADLGLRLLAPLMPFLAEELWQRLPPRPGCPPAPSISVAPYPSACSLEHWRQPELERRFSRVQEVVQVLRALRATYQLTKARPRVLLQSSEPGDQGLFEAFLEPLGTLGYCGAVGLLPPGAAAPSGWAQAPLSDTAQVYMELQGLVDPQIQLPLLAARRYKLQKQLDSLTARTPSEGEAGTQRQQKLSSLQLELSKLDKAASHLRQLMDEPPAPGSPEL [VARS2]”, the “solubility in G1/S (log2)” value in series [1] was -0.0605. The melting temperature was 52 °C in series [2] (cell cycle stage: G1/S) and 52.1 °C in series [2] (cell cycle stage: mitosis). The “solubility change mitosis (log2)” value in series [3] is 0.0161. Besides, the thermal stability score came to 0.335 in series [4] (setting [5]) and 0.452 in series [4] (cell cycle stage: mitosis).
